Laboratory results: article PMC8382222 (2021)

Tests used:
CRP-1 peptide = CRP-1 peptide (C-terminal amide (amidate version); cyclized); experiment: SPR
VEGF-114 peptide = VEGF-114 peptide (C-terminal amide (amidate version); cyclized); experiment: SPR

Binder	Kd (CRP-1 peptide)	koff (CRP-1 peptide)	Kd (VEGF-114 peptide)	koff (VEGF-114 peptide)
C-reactive protein (CRP) (natural protein) QTDMSRKAFVFPKESDTSYVSLKAPLTKPLKAFTVCLHFYTELSSTRGYSIFSYATKRQDNEILIFWSKDIGYSFTVGGSEILFEVPEVTVAPVHICTSWESASGIVEFWVDGKPRVRKSLKKGYTVGAEASIILGQEQDSFGGNFEGSQSLVGDIGNVNMWDFVLSPDEINTIYLGGPFSPNVLNWRALKYEVQGEVFTKPQLWP	12 µM	0.046 s⁻¹	–	–
vascular endothelial growth factor (Recombinant Human VEGF165) (ligand) APMAEGGGQNHHEVVKFMDVYQRSYCHPIETLVDIFQEYPDEIEYIFKPSCVPLMRCGGCCNDEGLECVPTEESNITMQIMRIKPHQGQHIGEMSFLQHNKCECRPKKDRARQENPCGPCSERRKHLFVQDPQTCKCSCKNTDSRCKARQLELNERTCRCDKPRR	–	–	10.3 µM	0.75 s⁻¹
